According to US20210179686A1 (Memorial Sloan Kettering, published 2021):

Experiments:
[1] = target: T1, R2-EE12RR345L CD28-9c delta; assay: double-transduced C1498 cells sorted with CD34 beads by the captured Q2 zipper (FIG. 19)
T1 construct: also called tandem circular CD20 mimotope-tagged capture leucine zipper
T1 chain: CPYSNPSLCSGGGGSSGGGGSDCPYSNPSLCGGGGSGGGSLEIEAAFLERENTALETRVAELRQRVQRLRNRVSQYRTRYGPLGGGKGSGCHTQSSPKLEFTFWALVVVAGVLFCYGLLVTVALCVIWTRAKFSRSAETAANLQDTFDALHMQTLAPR
Method: Next, the cells were magnetically sorted with CD34 beads. Subsequently, the cells were incubated with antibodies in the presence of complement.

[2] = target: T2, 1M mutant: RR123E45L linker EE12RR345L membrane-bound construct; assay: FLAG staining of co-transduced C1498 cells, flow cytometry (FIG. 20)
T2 chain: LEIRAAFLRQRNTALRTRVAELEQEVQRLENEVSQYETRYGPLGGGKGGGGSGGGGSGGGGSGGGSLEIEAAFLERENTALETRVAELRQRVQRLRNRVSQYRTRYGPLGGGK
Source text: (§1) C1498 cells were co-transduced with the FLAG-RR12EE345L GFP vector and one of the six mutants as part of RR12EE345L linker EE12RR345L BFP vector constructs. […] Thus, mutating the […] leucine zipper at “g” position residues to include repulsive amino acid interactions can reduce the degree of blocking by the linked […]-based mutant leucine zipper.

[3] = target: T3, 3C mutant: RR12345L linker EE12RR345L membrane-bound construct; assay: as above
T3 chain: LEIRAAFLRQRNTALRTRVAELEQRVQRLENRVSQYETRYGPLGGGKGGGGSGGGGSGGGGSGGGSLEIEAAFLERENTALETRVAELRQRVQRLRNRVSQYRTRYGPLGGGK
Source text: as §1

[4] = target: T4, 1N mutant: E1R2EE345L linker EE12RR345L membrane-bound construct; assay: as above
T4 chain: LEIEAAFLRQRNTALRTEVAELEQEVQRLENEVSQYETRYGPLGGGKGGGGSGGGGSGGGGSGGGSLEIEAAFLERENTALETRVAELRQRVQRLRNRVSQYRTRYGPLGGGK
Source text: as §1

[5] = target: T5, 2N mutant: EE12345L linker EE12RR345L membrane-bound construct; assay: as above
T5 chain: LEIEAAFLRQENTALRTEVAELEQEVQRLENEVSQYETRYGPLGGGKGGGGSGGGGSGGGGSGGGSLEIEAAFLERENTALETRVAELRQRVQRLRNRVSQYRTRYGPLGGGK
Source text: as §1

[6] = target: T6, 3N mutant: EE12R3E45L linker EE12RR345L membrane-bound construct; assay: as above
T6 chain: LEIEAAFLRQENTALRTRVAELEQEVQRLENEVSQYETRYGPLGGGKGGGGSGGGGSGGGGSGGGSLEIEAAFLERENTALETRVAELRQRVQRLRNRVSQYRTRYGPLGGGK
Source text: as §1

[7] = target: T7, 2M mutant: RR1234E5L linker EE12RR345L membrane-bound construct; assay: as above
T7 chain: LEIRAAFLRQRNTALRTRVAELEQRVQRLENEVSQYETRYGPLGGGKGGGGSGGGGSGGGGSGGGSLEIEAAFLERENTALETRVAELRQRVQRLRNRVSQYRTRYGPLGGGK
Source text: as §1

[8] = target: T8, RR12EE345L linker EE12RR345L CD80 (mouse (CD80 part, SEQ ID NO: 111)); assay: co-transduced T cells sorted with anti-FLAG magnetic beads (FIG. 21A)
T8 construct: left out; Expressed on T cells from a vector that also carries the CD20-streptag-CAR; also called CD80 functionalized leucine zipper
T8 chain: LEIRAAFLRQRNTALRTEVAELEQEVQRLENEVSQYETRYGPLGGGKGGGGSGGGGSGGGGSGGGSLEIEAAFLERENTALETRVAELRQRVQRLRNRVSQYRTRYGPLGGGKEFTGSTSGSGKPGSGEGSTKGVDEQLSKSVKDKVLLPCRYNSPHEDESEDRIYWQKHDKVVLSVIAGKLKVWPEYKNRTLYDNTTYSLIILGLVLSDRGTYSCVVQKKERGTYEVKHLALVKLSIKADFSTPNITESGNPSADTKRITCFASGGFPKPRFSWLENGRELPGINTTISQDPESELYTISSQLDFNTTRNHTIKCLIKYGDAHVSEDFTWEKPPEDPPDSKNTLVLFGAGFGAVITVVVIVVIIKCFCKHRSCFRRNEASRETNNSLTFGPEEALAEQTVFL
Source text: T cells were transduced with vectors encoding (a) FLAG-RR12EE345L iCaspase9 CD19-myc-CAR and (b) RR12EE345L linker EE12RR345L CD80 CD20-streptag-CAR. Next, cells were magnetically sorted with anti-FLAG magnetic beads.

Measured: binding result

B1: Q2-RR12EE345L (designed binder)
chain: GSGELPTQGTFSNVSTNVSGGGGSGGGSELPTQGTFSNVSTNVSGGGGSGGGSALGLEIRAAFLRQRNTALRTEVAELEQEVQRLENEVSQYETRYGPLGGGK
binds: [1]

B2: FLAG-RR12EE345L leucine zipper (secreted, affinity-tagged) (designed binder)
chain: DYKDDDDKLEIRAAFLRQRNTALRTEVAELEQEVQRLENEVSQYETRYGPLGGGK
notes: also called RR12EE345L-FLAG
binds: [2] | [3] | [4] | [5] | [6] | [7] | [8]
